Target: T1, CD200R1a on PathHunter Jurkat CD200R1a signaling cells (Eurofins DiscoverX, 93-1136C19) (human, UniProt Q8TD46 25-348)
T1 sequence: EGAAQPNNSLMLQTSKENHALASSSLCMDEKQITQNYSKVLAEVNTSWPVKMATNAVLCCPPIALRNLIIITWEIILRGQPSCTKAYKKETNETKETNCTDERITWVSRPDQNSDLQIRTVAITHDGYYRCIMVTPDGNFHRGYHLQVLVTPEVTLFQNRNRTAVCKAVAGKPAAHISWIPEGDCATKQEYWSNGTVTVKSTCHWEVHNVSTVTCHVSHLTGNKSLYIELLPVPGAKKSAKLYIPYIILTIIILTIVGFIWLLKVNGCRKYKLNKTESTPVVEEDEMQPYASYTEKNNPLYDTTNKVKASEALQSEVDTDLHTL
Test: cell-based or functional assay

B1: PR007973 (antibody, human IgG1, kappa, V domains shown)
VH: QVQLVESGGGVVQPGRSLRLSCAASGFTFSSYGFHWVRQAPGKGLEWLGIIWSDASNKYYADSVKGRFTISRDNSKNTLYLQMNSLRAEDTAVYYCARDRIVGEGFDYWGQGTLVTVSS
VL: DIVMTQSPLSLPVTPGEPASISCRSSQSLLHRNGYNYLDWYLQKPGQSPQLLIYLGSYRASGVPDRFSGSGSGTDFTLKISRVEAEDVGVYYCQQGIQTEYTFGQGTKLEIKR
notes: PTM variant of PR006839 (human IgG1)
  IC50 of the inhibition of CD200-induced PathHunter Jurkat CD200R1a luminescence (CHOK1/hCD200 cells as CD200 source): 0.706 nM
